The source of these data is US9090897B2, “Production of IFN-lambda by conventional dendritic cells” (Bavarian Nordic A/S, priority 2009, dated 2015).

“Also recorded” adds a separate entry of the source.

In one assay the test system is splenic CD8+ cDC. Briefly: In vitro stimulation of sorted splenic CD8+ cDCs, cytokines in supernatant (IFN-λ ELISA, IL-12p70 FlowCytomix). Format: cell-based, mouse. The note with it: for IFN-λ production in combination with poly IC: stimulus added together with poly IC, IL-3 and GM-CSF, 18 h; for effect of cytokine on IFN-λ production / effect of cytokine on IL-12p70 production: combinatory stimulus poly IC+CpG-1668, cytokine 10 ng/ml. The source says: DC subsets were isolated from pooled mouse spleens as described (Vremec et al., 2007). Briefly, spleens were chopped, digested with collagenase (Worthington Biochemical) and DNase (Roche) at room temperature, and treated with EDTA. Low-density cells were enriched by density centrifugation; non-DC lineage cells were coated with mAbs (anti-CD3, KT3-1.1; anti-Thy-1, T24/31.7; anti Gr-1, 1A8; anti-CD19, ID3; anti-erythrocytes, TER119 and anti-NK cells, DX5) and depleted using anti-rat Ig magnetic beads (Qiagen). Dead cells were excluded by propidium iodide staining. cDC populations were sorted based on the expression of CD11c, CD45RA, CD4, CD8a and CD172a and pDCs were purified based on CD11c, CD45RA, and CD172a (all BD Biosciences) expression. Cell sorting was performed on a FACS Aria instrument (BD Biosciences).
Cells were stimulated in vitro with single TLR agonists or combinations thereof containing 10 μg/ml Pam3Cys (InvivoGen), 100 μg/ml poly IC (Axxora), 10 μg/ml LPS (E. coli; Sigma-Aldrich or Axxora), 10 μg/ml R848 (Axxora), 1 μM CpG-1668 or CpG-2216 (TIB-Molbiol), 1 μg/ml profilin of toxoplasma (Axxora). The recombinant cytokines mouse-IL-3, mouse-IL-4, rat-IFN-γ (PeproTech) and mouse-GM-CSF (Tebu-Bio) (10 ng/ml each) were added as indicated. The addition of IL-3 and GM-CSF was based on previous observations that GM-CSF promoted the production of IL-12p70 and that the combination of IL-3 and GM-CSF increased virus induced IFN-λ production in pDCs and cDCs (Hochrein et al., 2000; Hochrein et al., 2004). As source of a parapoxvirus Zylexis, which is used for veterinary purposes was purchased from a pharmacy. HSV-1, in replication deficient form known as disc HSV-1 (HSV-1d) was used as described (Hochrein et al., 2004). IFN-λ in supernatants was analyzed by ELISA and IL-12p70 was determined by FlowCytomix bead assay (Bender Medsystems) according to manufacturer's protocol.

Assay [1] relates to mice. Briefly: In vivo challenge (i.v.), serum IFN-λ and IFN-α by ELISA. Also on record: species or system mouse. The note with it: for IFN-λ production to poly IC after growth factor treatment: FL-KO mice treated 7 days with 10 μg growth factor per day, then 100 μg poly IC i.v., 3-4 h. As to the method: Mice were injected i.v. into the lateral tail vein with 100 μg poly IC (Axxora) and serum was collected 3-4 h after challenge. Sera were pre-diluted 1/5, […] was analyzed by ELISA as described (Hochrein et al., 2004). IFN-λ was determined by an IFN-λ3 (IL-28B) ELISA (R&D Systems).

The subject of another assay is CD8α+ cDCs. As to the kind of experiment: In vitro stimulation of FL expanded ex-vivo isolated splenic CD8α+ cDCs, IFN-λ. The assay is classed as cell-based, mouse. The note with it: 5×10^5/ml, IL-3+GM-CSF+IL-4+IFN-γ, 100 μg/ml, 18 h. As to the method:
(§1) FIG. 13 depicts that in vivo FL expanded CD8α+cDCs and eCD8α cDCs selectively produce IFN-λ to poly AU in vitro. Highly purified FL expanded ex-vivo isolated splenic 5×10^5/ml were stimulated in the presence of IL-3+GM-CSF+IL-4+IFN-γ with either poly IC (100 μg/ml) or poly AU (100 μg/ml). After 18 h supernatants were analyzed for IFN-λ.
(§2) To see if the IFN-λ production to poly AU seen in vivo would correspond with the same cells as in response to poly IC we enhanced the amount of DC in mice with FL treatment and sorted CD8α+ cDCs, eCD8α cDCs and CD11b+/CD172a+cDCs. Those cells were stimulated with poly IC or poly AU.

The subject of a further assay is eCD8α cDCs. Briefly: In vitro stimulation of FL expanded ex-vivo isolated splenic eCD8α cDCs, IFN-λ. Format: cell-based, mouse. The note with it: 5×10^5/ml, IL-3+GM-CSF+IL-4+IFN-γ, 100 μg/ml, 18 h. The protocol:
as §1, §2

The subject of assay [2] is mice. Briefly: In vivo challenge (i.v.), serum IFN-λ and IFN-α by ELISA. Also on record: species or system mouse. (In general: In an ELISA, binding on a coated surface is turned into a signal by an enzyme label.)

With `CCCCCCCCCCCCCCCC(=O)N[C@@H](CSC[C@@H](COC(=O)CCCCCCCCCCCCCCC)OC(=O)CCCCCCCCCCCCCCC)C(=O)O` [Pam3Cys], the “IFN-λ production in combination with poly IC” value in the assay with splenic CD8+ cDC is “synergistically increased IFN-λ production”. “polyadenylic:polyuridylic acid [poly AU]”: in the assay on mice [1] (mice, 100 or 500 μg i.v., sera after 3-4 h), the “IFN-λ in the sera” value is given as “induces IFN-λ; also recorded: induced IFN-λ in the sera of mice”. The IFN-λ production entry in the assay with CD8α+ cDCs and in the assay with eCD8α cDCs was “able to produce IFN-λ” throughout. Also, in the assay on mice [2] (mice, poly AU injection), the “systemic IFN-λ” value is on record as “not detectable”. Take `CCOCc1nc2c(N)nc3ccccc3c2n1CC(C)(C)O` [R848]: the “IFN-λ production in combination with poly IC” value with splenic CD8+ cDC is “unable to support poly IC induced IFN-λ production”.

B1: FL: Fms-related tyrosine kinase 3 ligand, growth factor involved in development of DCs (protein, UniProt P49771 27-235, looked up)
Fms-related tyrosine kinase 3 …: TQDCSFQHSPISSDFAVKIRELSDYLLQDYPVTVASNLQDEELCGGLWRLVLAQRWMERLKTVAGSKMQGLLERVNTEIHFVTKCAFQPPPSCLRFVQTNISRLLQETSEQLVALKPWITRQNFSRCLELQCQPDSSTLPPPWSPRPLEATAPTAPQPPLLLLLLLPVGLLLLAAAWCLHWQRTRRRTPRPGEQVPPVPSPQDLLLVEH
For the molecule B1, the “IFN-λ production to poly IC after growth factor treatment” value in the assay on mice [1] is on record as “not only restored, but even increased, their IFN-λ producing capacity above WT level”. Further, in the assay with mice [2] (FL treated WT mice), the “systemic IFN-λ response to poly IC challenge after growth factor treatment” value was “greatly increased systemic IFN-λ response”.

B2: M-CSF: M-CSF receptor ligand, growth factor (protein, UniProt P09603 33-554, looked up)
Macrophage colony-stimulating …: EEVSEYCSHMIGSGHLQSLQRLIDSQMETSCQITFEFVDQEQLKDPVCYLKKAFLLVQDIMEDTMRFRDNTPNAIAIVQLQELSLRLKSCFTKDYEEHDKACVRTFYETPLQLLEKVKNVFNETKNLLDKDWNIFSKNCNNSFAECSSQDVVTKPDCNCLYPKAIPSSDPASVSPHQPLAPSMAPVAGLTWEDSEGTEGSSLLPGEQPLHTVDPGSAKQRPPRSTCQSFEPPETPVVKDSTIGGSPQPRPSVGAFNPGMEDILDSAMGTNWVPEEASGEASEIPVPQGTELSPSRPGGGSMQTEPARPSNFLSASSPLPASAKGQQPADVTGTALPRVGPVRPTGQDWNHTPQKTDHPSALLRDPPEPGSPRISSLRPQGLSNPSTLSAQPQLSRSHSSGSVLPLGELEGRRSTRDRRSPAEPEGGPASEGAARPLPRFNSVPLTDTGHERQSEGSFSPQLQESVFHLLVPSVILVLLAVGGLLFYRWRRRSHQEPQRADSPLEQPEGSPLTQDDRQVELPV
As for B2, the “IFN-λ production to poly IC after growth factor treatment” value in the assay on mice [1] is “able to increase IFN-λ production to poly IC”.

B3: IL-4: recombinant cytokine mouse-IL-4 (protein, UniProt P07750 21-140, looked up)
Interleukin-4: HIHGCDKNHLREIIGILNEVTGEGTPCTEMDVPNVLTATKNTTESELVCRASKVLRIFYLKHGKTPCLKKNSSVLMELQRLFRAFRCLDSSISCTMNESKSTSLKDFLESLKSIMQMDYS
For B3, in the assay with splenic CD8+ cDC, the “effect of cytokine on IFN-λ production” value is on record as “not IFN-λ production” and the “effect of cytokine on IL-12p70 production” value is given as “increased IL-12p70”.

B4: IFN-γ: recombinant cytokine rat-IFN-γ (protein, UniProt P01581 23-156, looked up)
Interferon gamma: QGTLIESLESLKNYFNSSSMDAMEGKSLLLDIWRNWQKDGNTKILESQIISFYLRLFEVLKDNQAISNNISVIESHLITNFFSNSKAKKDAFMSIAKFEVNNPQIQHKAVNELIRVIHQLSPESSLRKRKRSRC
On to B4, for which, in the assay with splenic CD8+ cDC, the “effect of cytokine on IFN-λ production” value is reported as “enhanced the production of IFN-λ” and the “effect of cytokine on IL-12p70 production” value is “little effects on IL-12p70 production”.
